Sequences and labels used below:
B1: CyPPO19 V165C + A167C + I408W + F360T: variant of CyPPO19 PPO protein (SEQ ID NO: 1) (protein)
chain: MSEVDVAIVGGGLSGLSLAWRLQQSAPQYSVVLLEASDRLGGNITTQTAEGFVWELGPNSFAPTPALLQLIAEVGLQSELIRGDRHLPRYIYWRGQLYPLQPTRPLALATSNLLSPWGKVRAALGALGFVPPYLGSGDESVNSFFRRHLGQEVAERLVAPFVSGCYCGDPQQLSAAAAFRRIAQLEKLGGGLIAGALHLRRQQAPKPKPPTSVQMRPGELGSFKEGLAALPRAIAQQLKAPIHLQTPVQEITPDPKGGYLLRSGEQTWRARSVVLATPAYQTAELVAPFQPAIARVLATIPYPTVACVVLAYPAGLGRSVRPGFGVLIPRSQGIRTLGTIWSSCLFPQRTPAGWQVFTSTIGGATDPDLASLSEEAIVQQVQQDLNRLLDLPAAKARLLGMKVWRRAWPQYMVGYPEQWQQVTHALSQTPGLFLCSNYAEGVALGDRVEHGNRTAAAVAAYLSGGQP
modifications: Synthetic_PPO of Thermosynechococcus elongatus PKUAC-SCTE542 (comprising GenBank No. CP032152.1)
B2: CyPPO19 A167L + V305M + I408R + F360M: variant of CyPPO19 PPO protein (SEQ ID NO: 1) (protein)
chain: MSEVDVAIVGGGLSGLSLAWRLQQSAPQYSVVLLEASDRLGGNITTQTAEGFVWELGPNSFAPTPALLQLIAEVGLQSELIRGDRHLPRYIYWRGQLYPLQPTRPLALATSNLLSPWGKVRAALGALGFVPPYLGSGDESVNSFFRRHLGQEVAERLVAPFVSGVYLGDPQQLSAAAAFRRIAQLEKLGGGLIAGALHLRRQQAPKPKPPTSVQMRPGELGSFKEGLAALPRAIAQQLKAPIHLQTPVQEITPDPKGGYLLRSGEQTWRARSVVLATPAYQTAELVAPFQPAIARVLATIPYPTMACVVLAYPAGLGRSVRPGFGVLIPRSQGIRTLGTIWSSCLFPQRTPAGWQVFTSMIGGATDPDLASLSEEAIVQQVQQDLNRLLDLPAAKARLLGMKVWRRARPQYMVGYPEQWQQVTHALSQTPGLFLCSNYAEGVALGDRVEHGNRTAAAVAAYLSGGQP
modifications: Synthetic_PPO of Thermosynechococcus elongatus PKUAC-SCTE542 (comprising GenBank No. CP032152.1)
B3: CyPPO19 A167I + V305L + L327T + F360V: variant of CyPPO19 PPO protein (SEQ ID NO: 1) (protein)
chain: MSEVDVAIVGGGLSGLSLAWRLQQSAPQYSVVLLEASDRLGGNITTQTAEGFVWELGPNSFAPTPALLQLIAEVGLQSELIRGDRHLPRYIYWRGQLYPLQPTRPLALATSNLLSPWGKVRAALGALGFVPPYLGSGDESVNSFFRRHLGQEVAERLVAPFVSGVYIGDPQQLSAAAAFRRIAQLEKLGGGLIAGALHLRRQQAPKPKPPTSVQMRPGELGSFKEGLAALPRAIAQQLKAPIHLQTPVQEITPDPKGGYLLRSGEQTWRARSVVLATPAYQTAELVAPFQPAIARVLATIPYPTLACVVLAYPAGLGRSVRPGFGVTIPRSQGIRTLGTIWSSCLFPQRTPAGWQVFTSVIGGATDPDLASLSEEAIVQQVQQDLNRLLDLPAAKARLLGMKVWRRAIPQYMVGYPEQWQQVTHALSQTPGLFLCSNYAEGVALGDRVEHGNRTAAAVAAYLSGGQP
modifications: Synthetic_PPO of Thermosynechococcus elongatus PKUAC-SCTE542 (comprising GenBank No. CP032152.1)
B4: CyPPO19 V165S + F360L: variant of CyPPO19 PPO protein (SEQ ID NO: 1) (protein)
chain: MSEVDVAIVGGGLSGLSLAWRLQQSAPQYSVVLLEASDRLGGNITTQTAEGFVWELGPNSFAPTPALLQLIAEVGLQSELIRGDRHLPRYIYWRGQLYPLQPTRPLALATSNLLSPWGKVRAALGALGFVPPYLGSGDESVNSFFRRHLGQEVAERLVAPFVSGSYAGDPQQLSAAAAFRRIAQLEKLGGGLIAGALHLRRQQAPKPKPPTSVQMRPGELGSFKEGLAALPRAIAQQLKAPIHLQTPVQEITPDPKGGYLLRSGEQTWRARSVVLATPAYQTAELVAPFQPAIARVLATIPYPTVACVVLAYPAGLGRSVRPGFGVLIPRSQGIRTLGTIWSSCLFPQRTPAGWQVFTSLIGGATDPDLASLSEEAIVQQVQQDLNRLLDLPAAKARLLGMKVWRRAIPQYMVGYPEQWQQVTHALSQTPGLFLCSNYAEGVALGDRVEHGNRTAAAVAAYLSGGQP
modifications: Synthetic_PPO of Thermosynechococcus elongatus PKUAC-SCTE542 (comprising GenBank No. CP032152.1)
B5: CyPPO19 V305L + L327T + I408W + F360V: variant of CyPPO19 PPO protein (SEQ ID NO: 1); printed 305L in Table 9 (protein)
chain: MSEVDVAIVGGGLSGLSLAWRLQQSAPQYSVVLLEASDRLGGNITTQTAEGFVWELGPNSFAPTPALLQLIAEVGLQSELIRGDRHLPRYIYWRGQLYPLQPTRPLALATSNLLSPWGKVRAALGALGFVPPYLGSGDESVNSFFRRHLGQEVAERLVAPFVSGVYAGDPQQLSAAAAFRRIAQLEKLGGGLIAGALHLRRQQAPKPKPPTSVQMRPGELGSFKEGLAALPRAIAQQLKAPIHLQTPVQEITPDPKGGYLLRSGEQTWRARSVVLATPAYQTAELVAPFQPAIARVLATIPYPTLACVVLAYPAGLGRSVRPGFGVTIPRSQGIRTLGTIWSSCLFPQRTPAGWQVFTSVIGGATDPDLASLSEEAIVQQVQQDLNRLLDLPAAKARLLGMKVWRRAWPQYMVGYPEQWQQVTHALSQTPGLFLCSNYAEGVALGDRVEHGNRTAAAVAAYLSGGQP
modifications: Synthetic_PPO of Thermosynechococcus elongatus PKUAC-SCTE542 (comprising GenBank No. CP032152.1)

The test concerns PPO-deficient BT3 E. coli (ΔPPO). The test can be described thus: PPO-inhibiting herbicide tolerance test of PPO variants in E. coli (growth on herbicide-containing LB agar). The following applies: CyPPO19 variants in BT3 (ΔPPO) E. coli; LB agar with 0 to 2,000 μM herbicide, 37° C., dark, 16-20 hours. In kind it is cell-based. The procedure, abridged:
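PPO-deficient BT3 E. coli expressing each variant from pET303 were diluted to OD600=0.5, then 10-fold serially, and spotted on LB-ampicillin agar with 0 to 2,000 μM herbicide. After 16-20 h at 37° C. in the dark, growth relative to wild type was scored from '−' (equivalent) to '+' per 10-fold resistance, max '+++++'.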
For the molecule B1, the “tolerance level relative to wild type, Carfentrazone” value is “+ (‘+’ per each 10-fold resistance)”; the “tolerance level relative to wild type, Flumioxazin” value is “++++ (‘+’ per each 10-fold resistance)”; the “tolerance level relative to wild type, Fomesafen” value is “++ (‘+’ per each 10-fold resistance)”; the “tolerance level relative to wild type, Oxyfluorfen” value is recorded as “++ (‘+’ per each 10-fold resistance)”. Also, the “tolerance level relative to wild type, Saflufenacil” value is “++++ (‘+’ per each 10-fold resistance)”; the “tolerance level relative to wild type, Sulfentrazone” value is reported as “+++ (‘+’ per each 10-fold resistance)”; the “tolerance level relative to wild type, Tiafenacil” value is reported as “++++ (‘+’ per each 10-fold resistance)”.

Take B2: the “tolerance level relative to wild type, Carfentrazone” value is “+ (‘+’ per each 10-fold resistance)”; the “tolerance level relative to wild type, Flumioxazin” value is given as “+++++ (until ‘+++++’ as maximal resistance)”; the “tolerance level relative to wild type, Fomesafen” value is listed as “+++ (‘+’ per each 10-fold resistance)”; the “tolerance level relative to wild type, Oxyfluorfen” value is “+++ (‘+’ per each 10-fold resistance)”. In addition, the “tolerance level relative to wild type, Saflufenacil” value was “+++++ (until ‘+++++’ as maximal resistance)”; the “tolerance level relative to wild type, Sulfentrazone” value is on record as “+++++ (until ‘+++++’ as maximal resistance)”; the “tolerance level relative to wild type, Tiafenacil” value is “+++++ (until ‘+++++’ as maximal resistance)”.

Regarding B3, the “tolerance level relative to wild type, Carfentrazone” value was “+ (‘+’ per each 10-fold resistance)”; the “tolerance level relative to wild type, Flumioxazin” value is on record as “+++++ (until ‘+++++’ as maximal resistance)”; the “tolerance level relative to wild type, Fomesafen” value was “+++ (‘+’ per each 10-fold resistance)”; the “tolerance level relative to wild type, Oxyfluorfen” value is reported as “+++ (‘+’ per each 10-fold resistance)”. The “tolerance level relative to wild type, Saflufenacil” value was “++++ (‘+’ per each 10-fold resistance)”; the “tolerance level relative to wild type, Sulfentrazone” value is listed as “++++ (‘+’ per each 10-fold resistance)”; the “tolerance level relative to wild type, Tiafenacil” value is “+++++ (until ‘+++++’ as maximal resistance)”.

With B4, the “tolerance level relative to wild type, Carfentrazone” value is listed as “+ (‘+’ per each 10-fold resistance)”; the “tolerance level relative to wild type, Flumioxazin” value is “++++ (‘+’ per each 10-fold resistance)”; the “tolerance level relative to wild type, Fomesafen” value was “++ (‘+’ per each 10-fold resistance)”; the “tolerance level relative to wild type, Oxyfluorfen” value is “++ (‘+’ per each 10-fold resistance)”. Moreover, the “tolerance level relative to wild type, Saflufenacil” value was “++++ (‘+’ per each 10-fold resistance)”; the “tolerance level relative to wild type, Sulfentrazone” value is on record as “+++ (‘+’ per each 10-fold resistance)”; the “tolerance level relative to wild type, Tiafenacil” value was “++++ (‘+’ per each 10-fold resistance)”.

On to B5, for which the “tolerance level relative to wild type, Carfentrazone” value was “+ (‘+’ per each 10-fold resistance)”; the “tolerance level relative to wild type, Flumioxazin” value is listed as “+++++ (until ‘+++++’ as maximal resistance)”; the “tolerance level relative to wild type, Fomesafen” value is “+++ (‘+’ per each 10-fold resistance)”; the “tolerance level relative to wild type, Oxyfluorfen” value is listed as “+++ (‘+’ per each 10-fold resistance)”. Also, the “tolerance level relative to wild type, Saflufenacil” value was “+++++ (until ‘+++++’ as maximal resistance)”; the “tolerance level relative to wild type, Sulfentrazone” value is given as “+++++ (until ‘+++++’ as maximal resistance)”; the “tolerance level relative to wild type, Tiafenacil” value is listed as “+++++ (until ‘+++++’ as maximal resistance)”.
